T1: FANCC (human, UniProt Q00597 1-558)
T1 sequence: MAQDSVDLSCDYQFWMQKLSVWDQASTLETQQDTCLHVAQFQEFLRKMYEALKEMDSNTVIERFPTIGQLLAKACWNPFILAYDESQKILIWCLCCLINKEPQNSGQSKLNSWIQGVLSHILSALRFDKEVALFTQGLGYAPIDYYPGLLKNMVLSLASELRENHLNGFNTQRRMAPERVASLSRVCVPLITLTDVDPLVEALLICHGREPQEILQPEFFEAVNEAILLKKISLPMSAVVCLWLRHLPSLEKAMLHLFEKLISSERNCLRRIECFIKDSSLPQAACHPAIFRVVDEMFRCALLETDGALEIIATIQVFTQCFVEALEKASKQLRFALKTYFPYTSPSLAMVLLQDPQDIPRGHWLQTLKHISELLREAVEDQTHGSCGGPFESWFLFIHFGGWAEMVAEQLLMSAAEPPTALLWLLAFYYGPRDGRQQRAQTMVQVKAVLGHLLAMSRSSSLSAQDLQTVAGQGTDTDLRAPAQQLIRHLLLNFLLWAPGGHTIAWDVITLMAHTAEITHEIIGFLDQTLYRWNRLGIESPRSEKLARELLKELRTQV

B1: FANCB (natural protein)
chain: MTSKQAMSSNEQERLLCYNGEVLVFQLSKGNFADKEPTKTPILHVRRMVFDRGTKVFVQKSTGFFTIKEENSHLKIMCCNCVSDFRTGINLPYIVIEKNKKNNVFEYFLLILHSTNKFEMRLSFKLGYEMKDGLRVLNGPLILWRHVKAFFFISSQTGKVVSVSGNFSSIQWAGEIENLGMVLLGLKECCLSEEECTQEPSKSDYAIWNTKFCVYSLESQEVLSDIYIIPPAYSSVVTYVHICATEIIKNQLRISLIALTRKNQLISFQNGTPKNVCQLPFGDPCAVQLMDSGGGNLFFVVSFISNNACAVWKESFQVAAKWEKLSLVLIDDFIGSGTEQVLLLFKDSLNSDCLTSFKITDLGKINYSSEPSDCNEDDLFEDKQENRYLVVPPLETGLKVCFSSFRELRQHLLLKEKIISKSYKALINLVQGKDDNTSSAEEKECLVPLCGEEENSVHILDEKLSDNFQDSEQLVEKIWYRVIDDSLVVGVKTTSSLKLSLNDVTLSLLMDQAHDSRFRLLKCQNRVIKLSTNPFPAPYLMPCEIGLEAKRVTLTPDSKKEESFVCEHPSKKECVQIITAVTSLSPLLTFSKFCCTVLLQIMERESGNCPKDRYVVCGRVFLSLEDLSTGKYLLTFPKKKPIEHMEDLFALLAAFHKSCFQITSPGYALNSMKVWLLEHMKCEIIKEFPEVYFCERPGSFYGTLFTWKQRTPFEGILIIYSRNQTVMFQCLHNLIRILPINCFLKNLKSGSENFLIDNMAFTLEKELVTLSSLSSAIAKHESNFMQRCEVSKGKSSVVAAALSDRRENIHPYRKELQREKKKMLQTNLKVSGALYREITLKVAEVQLKSDFAAQKLSNL
B2: FANCE (natural protein)
chain: MATPDAGLPGAEGVEPAPWAQLEAPARLLLQALQAGPEGARRGLGVLRALGSRGWEPFDWGRLLEALCREEPVVQGPDGRLELKPLLLRLPRICQRNLMSLLMAVRPSLPESGLLSVLQIAQQDLAPDPDAWLRALGELLRRDLGVGTSMEGASPLSERCQRQLQSLCRGLGLGGRRLKSPQAPDPEEEENRDSQQPGKRRKDSEEEAASPEGKRVPKRLRCWEEEEDHEKERPEHKSLESLADGGSASPIKDQPVMAVKTGEDGSNLDDAKGLAESLELPKAIQDQLPRLQQLLKTLEEGLEGLEDAPPVELQLLHECSPSQMDLLCAQLQLPQLSDLGLLRLCTWLLALSPDLSLSNATVLTRSLFLGRILSLTSSASRLLTTALTSFCAKYTYPVCSALLDPVLQAPGTGPAQTELLCCLVKMESLEPDAQVLMLGQILELPWKEETFLVLQSLLERQVEMTPEKFSVLMEKLCKKGLAATTSMAYAKLMLTVMTKYQANITETQRLGLAMALEPNTTFLRKSLKAALKHLGP
B3: FANCA (natural protein)
chain: MSDSWVPNSASGQDPGGRRRAWAELLAGRVKREKYNPERAQKLKESAVRLLRSHQDLNALLLEVEGPLCKKLSLSKVIDCDSSEAYANHSSSFIGSALQDQASRLGVPVGILSAGMVASSVGQICTAPAETSHPVLLTVEQRKKLSSLLEFAQYLLAHSMFSRLSFCQELWKIQSSLLLEAVWHLHVQGIVSLQELLESHPDMHAVGSWLFRNLCCLCEQMEASCQHADVARAMLSDFVQMFVLRGFQKNSDLRRTVEPEKMPQVTVDVLQRMLIFALDALAAGVQEESSTHKIVRCWFGVFSGHTLGSVISTDPLKRFFSHTLTQILTHSPVLKASDAVQMQREWSFARTHPLLTSLYRRLFVMLSAEELVGHLQEVLETQEVHWQRVLSFVSALVVCFPEAQQLLEDWVARLMAQAFESCQLDSMVTAFLVVRQAALEGPSAFLSYADWFKASFGSTRGYHGCSKKALVFLFTFLSELVPFESPRYLQVHILHPPLVPGKYRSLLTDYISLAKTRLADLKVSIENMGLYEDLSSAGDITEPHSQALQDVEKAIMVFEHTGNIPVTVMEASIFRRPYYVSHFLPALLTPRVLPKVPDSRVAFIESLKRADKIPPSLYSTYCQACSAAEEKPEDAALGVRAEPNSAEEPLGQLTAALGELRASMTDPSQRDVISAQVAVISERLRAVLGHNEDDSSVEISKIQLSINTPRLEPREHMAVDLLLTSFCQNLMAASSVAPPERQGPWAALFVRTMCGRVLPAVLTRLCQLLRHQGPSLSAPHVLGLAALAVHLGESRSALPEVDVGPPAPGAGLPVPALFDSLLTCRTRDSLFFCLKFCTAAISYSLCKFSSQSRDTLCSCLSPGLIKKFQFLMFRLFSEARQPLSEEDVASLSWRPLHLPSADWQRAALSLWTHRTFREVLKEEDVHLTYQDWLHLELEIQPEADALSDTERQDFHQWAIHEHFLPESSASGGCDGDLQAACTILVNALMDFHQSSRSYDHSENSDLVFGGRTGNEDIISRLQEMVADLELQQDLIVPLGHTPSQEHFLFEIFRRRLQALTSGWSVAASLQRQRELLMYKRILLRLPSSVLCGSSFQAEQPITARCEQFFHLVNSEMRNFCSHGGALTQDITAHFFRGLLNACLRSRDPSLMVDFILAKCQTKCPLILTSALVWWPSLEPVLLCRWRRHCQSPLPRELQKLQEGRQFASDFLSPEAASPAPNPDWLSAAALHFAIQQVREENIRKQLKKLDCEREELLVFLFFFSLMGLLSSHLTSNSTTDLPKAFHVCAAILECLEKRKISWLALFQLTESDLRLGRLLLRVAPDQHTRLLPFAFYSLLSYFHEDAAIREEAFLHVAVDMYLKLVQLFVAGDTSTVSPPAGRSLELKGQGNPVELITKARLFLLQLIPRCPKKSFSHVAELLADRGDCDPEVSAALQSRQQAAPDADLSQEPHLF
B4: FAAP100 (natural protein)
chain: MAGAAPRVRYLAGFCCPLGGLAAGKPRVLCHEAEVFLSTGSELVYVYDQEGGLLTAAFRFPDQVWHLELLAPRRLLYALCARRGLYCLSLDHPGRSRSTSQDDRDSEDGDQPSPVIPVDPDACILPDAALCAFTLLDSVLVTLVQGPARWKMQLFEQPCPGEDPRPGGQIGEVELSSYTPPAGVPGKPAAPHFLPVLCSVSPSGSRVPHDLLGGSGGFTLEDALFGLLFGADATLLQSPVVLCGLPDGQLCCVILKALVTSRSAPGDPNALVKILHHLEEPVIFIGALKTEPQAAEAAENFLPDEDVHCDCLVAFGHHGRMLAIKASWDESGKLVPELREYCLPGPVLCAACGGGGRVYHSTPSDLCVVDLSRGSTPLGPEQPEEGPGGLPPMLCPASLNICSVVSLSASPRTHEGGTKLLALSAKGRLMTCSLDLDSEMPGPARMTTESAGQKIKELLSGIGNISERVSFLKKAVDQRNKALTSLNEAMNVSCALLSSGTGPRPISCTTSTTWSRLQTQDVLMATCVLENSSSFSLDQGWTLCIQVLTSSCALDLDSACSAITYTIPVDQLGPGARREVTLPLGPGENGGLDLPVTVSCTLFYSLREVVGGALAPSDSEDPFLDECPSDVLPEQEGVCLPLSRHTVDMLQCLRFPGLAPPHTRAPSPLGPTRDPVATFLETCREPGSQPAGPASLRAEYLPPSVASIKVSAELLRAALKDGHSGVPLCCATLQWLLAENAAVDVVRARALSSIQGVAPDGANVHLIVREVAMTDLCPAGPIQAVEIQVESSSLADICRAHHAVVGRMQTMVTEQATQGSSAPDLRVQYLRQIHANHETLLREVQTLRDRLCTEDEASSCATAQRLLQVYRQLRHPSLILL

What was measured:
Assay in all cases: cryo-EM structure
FANCA = target: B3
cryo-EM structure = target: the molecule itself
FANCC = target: T1, FANCC

B1: binds (FANCA); binds (cryo-EM structure).

B2: binds (FANCC).

With B3 the “stoichiometry N” value (cryo-EM structure) was 2.

B4: binds (FANCA).

— publication doi:10.1101/854158 (bioRxiv, 2019)
